Reference: patent US9884122B2, “Small molecule drug conjugates” (Philochem AG, priority 2014, dated 2018)

Legend:
[1] = test system: subcutaneous SKRC52 tumors
Protocol: SKRC52 cells were grown to 80% confluence and detached with Trypsin-EDTA 0.05% (Invitrogen). Cells were washed with PBS pH 7.4 once, counted and resuspended in PBS to a final concentration of 6.7×10^7 cells mL^−1. Athymic balb/c nu/nu mice, 8-10 weeks of age (Charles River) were anesthetized with isofluorane and aliquots of 1×10^7 cells (150 μL of suspension) injected subcutaneously into their lower back.
Food and water was given ad libitum during that period.
Mice were subsequently sacrificed by cervical dislocation.

[2] = test system: CAIX expressing SKRC52 cells; assay: Ligand binding analysis by flow cytometry, SKRC52; format: cell-based, human; conditions: 30 nM dye conjugate, 1 h at 0° C., washed
Protocol: Cells were detached from culture plates using a 50 mM EDTA solution in phosphate buffered saline (PBS) pH 7.4, counted and suspended to a final concentration of 1.5×10^6 cells mL^−1 in a 1% v/v solution of FCS in PBS pH 7.4. Aliquots of 3×10^5 cells (200 μL) were spun down and resuspended in solutions of IRDye750 (Licor) labeled ligands (30 nM) in a 1% v/v solution of FCS in PBS pH 7.4 (200 μL) and incubated on ice for 1 h. Cells were washed once with 200 μL 1% v/v solution of FCS in PBS pH 7.4 (200 μL), spun down, resuspended in 1% v/v solution of FCS in PBS pH 7.4 (300 μL) and analyzed on a FACS Canto flow cytometer (BD Bioscience). FlowJo Version 8.7 (Treestar) was used for data analysis and visualization. Results were as follows: • (1) Flow cytometry analysis of binding of ligand-IRDye750 conjugates 1c-6c (FIG. 1) to CAIX expressing SKRC52 cells.
Flow cytometry was performed as described above with monovalent and bivalent near infrared dye conjugates B3 and B4 and negative control conjugates lacking the ligand on CAIX-positive SKRC52 cells and CAIX-negative HEK cells^5.

[3] = target: T1, recombinant carbonic anhydrase IX (Homo sapiens, UniProt Q16790); assay: biochemical; format: binding
T1 construct: Recombinant CAIX was expressed as described previously; made in house
Protocol: The FP was measured on a Spectra Max Paradigm multimode plate reader (Molecular Devices). Experiments were performed in triplicate and data analyzed as described by Wang and co-workers.^[4]

[4] = Stability in mouse plasma/serum at 37 C; format: in vitro ADME
Protocol: (§1) Targeted carbonate or carbamate 7a or 8a (30 μg) was dissolved in PBS pH 7.4 (1.5 mL) and incubated at 37° C. under gentle agitation. Aliquots (100 μL) were removed at different time points and diluted 1:1 with an internal standard of etodolac (TCI Chemicals) in MeOH (20 μg mL^−1). Small molecules were separated from salts using an Oasis WAX online sample preparation column (Waters) on an Alliance HT separation module (50 μL injections, 0.3 mL min^−1 0.1% aq. HCOOH for 3 min followed by 0.3 mL min^−1 MeCN for 7 min, Waters) and analyzed by mass spectrometry/mass spectrometry (MS/MS) on a Quattro API spectrometer (Waters) monitoring appropriate multiple reaction monitoring (MRM) transitions for 8a, 8b and etodolac as standard. Measurements were performed in triplicate, peaks integrated and the fraction of intact test compounds calculated as fraction of signal at time t divided by signal at time zero. Since signals due to etodolac were constant over time a further correction using the internal standard as reference was omitted. For stability measures in mouse serum, compounds were dissolved in freshly thawed mouse plasma (Invitrogen), aliquots taken at different time points and diluted with an equal volume of MeCN. After vigorous vortexting for 1 min, protein precipitate was spun down and the supernatant analyzed as above.
Targeted DM1 conjugate 9a (230 μg, 140 nmol) was dissolved in PBS pH 7.4 (1 mL) and incubated at 37° C. under gentle agitation. Aliquots (100 μL) were removed at different time points and diluted 1:1 with an internal standard solution of etodolac (TCI Chemicals) in MeCN (20 μg mL^−1). Water (600 μL) was added and aliquots of this mixture (50 μL) analyzed over a Syngergi RP Polar column (150×4.6 mm, 4 μm, Phenomenex) on an Alliance HT separation module (1 mL min^−1 5% MeCN in 0.1% aqueous TFA to 100% MeCN over 20 min, Waters). Analytes were detected using a Water 2996 photo array UV/VIS detector (Waters). Measurements were performed in triplicate, peaks integrated and the fraction of intact test compounds calculated as fraction of signal at time t divided by signal at time zero. Since signals due to etodolac were constant over time a further correction using the internal standard as reference was omitted. For stability measures in mouse serum, compounds were dissolved in freshly thawed mouse plasma (Invitrogen), aliquots taken at different time points and diluted with an equal volume of MeCN. After vigorous vortexting for 1 min, protein precipitate was spun down and the supernatant analyzed as above.

[5] = Estimation of the recommended therapy dose (tolerability); format: in vivo, mouse; conditions: for tolerated dose: nude mice, one mouse per regimen
Protocol: Estimation of the recommended therapy dose of a) 7a and b) 8a in nude mice was performed by studying different dosages using a schedule of five injections on five consecutive days compared to vehicle (5% DMSO in PBS pH 7.4). The dosage regimens were 0.4 nmol/day, 1.3 nmol/day, 4.0 nmol/day and 13.3 nmol/day. One mouse was used for each regimen.
Estimation of the recommended therapy dose and schedule of DM1 conjugate 9a was studied in SKRC52 tumor bearing nude mice. One mouse was used for testing each dosing scheme. Injections were given daily starting on day 0 in 5% DMSO in PBS pH 7.4 (150 μL). […] Since the animals in this study weighed on average 18% less than those used in the therapy study, a dose of 70 nmol per injection was used for the therapy experiment.

SKRC52 xenograft tumors = conditions: for tumor growth effect: 5 doses of 4 nmol on 5 consecutive days, 7a vs vehicle p<0.0001, vs 7b plus AAZ p<0.05
Protocol: SKRC52 xenograft tumors were implanted into balb/c nu/nu mice (Charles River) as described above. […] 5 doses of 4 nmol 7a,b, 8a,b or 7 doses of 70 nmol 9a,b each in PBS pH 7.4 (150 μL) containing 5% DMSO were given on 5 or 7 consecutive days and one group was treated with vehicle (5% DMSO in PBS pH 7.4). In the case of 7-9b an equimolar amount of AAZ was added to the injection solution to control for a possible antitumor activity of CAIX inhibitors. Sorafenib and sunitnib were administered at a standard dose of 30 mg/kg as described previously.^[5] Animals were weighed and tumor sizes measured daily and the tumor volume calculated according to the formula (long side)×(short side)^2×0.5. […] Prism 6 (GraphPad Software) was used for data analysis (regular two-way ANOVA with the Bonferroni test).

[6] = Hydrolytic stability in PBS pH 7.4 at 37 C (MS/MS or HPLC); format: physicochemical; set-up: half-life: dose or concentration left out as unconfirmed; conditions: PBS pH 7.4, 37° C.; for half-life: read-out: t1/2 in PBS (converted)
Protocol: as §1
Targeted DM1 conjugate 9a (230 μg, 140 nmol) was dissolved in PBS pH 7.4 (1 mL) and incubated at 37° C. under gentle agitation. […] Water (600 μL) was added and aliquots of this mixture (50 μL) analyzed over a Syngergi RP Polar column (150×4.6 mm, 4 μm, Phenomenex) on an Alliance HT separation module (1 mL min^−1 5% MeCN in 0.1% aqueous TFA to 100% MeCN over 20 min, Waters). Analytes were detected using a Water 2996 photo array UV/VIS detector (Waters). Measurements were performed in triplicate, peaks integrated and the fraction of intact test compounds calculated as fraction of signal at time t divided by signal at time zero. […] After vigorous vortexting for 1 min, protein precipitate was spun down and the supernatant analyzed as above.

[7] = test system: CAIX expressing SKRC52 cells; assay: In vitro cytotoxicity assay (MTS); format: cell-based, human; conditions: Condition (b): 1 h exposure, wash, then 72 h; concentrations up to 300 nM
Protocol: SKRC52 or A549 cells were seeded in 96-well plates in their appropriate culture medium (100 μL) at a density of 5000 cells per well and allowed to grow for 24 h. The medium was replaced with medium containing different concentrations of test substance (100 μL, 300 nM-15 pM in 1:3 dilution steps) and plates were either:
(a) incubated for 72 hours in the presence of the toxic substance, or
(b) incubated for 1 h under standard culture conditions, followed by removal of the medium containing the toxic substance, gently washing the cells fresh medium once and adding new medium (100 μL) and incubating for 72 h under culture conditions.
MTS cell viability dye (20 μL, Promega) was added, the plates were incubated for 1 h under culture conditions and the absorbance at 490 nm measured on a Spectra Max Paradigm multimode plate reader (Molecular Devices). Experiments were performed in triplicate and average cell viability calculated as measured background corrected absorbance divided by the absorbance of untreated control wells. EC50 values were determined by fitting data to the four-parameter logistic equation.

[8] = test system: subcutaneous SKRC52 tumors; assay: Analysis of tumor penetration by fluorescence microscopy; format: in vivo, mouse; conditions: 50 nmol intravenous; for tumor staining / penetration by fluorescence microscopy: Alexa546 probes
Protocol: After warming to −20° C., samples were cut into sections of 10 μm width and directly imaged on an Axioskop 2 fluorescence microscope (Zeiss).

[9] = five injections on five consecutive days
[10] = 7×70 nmol on 7 consecutive days

CC(C)(C)OC(=O)NCCOCCOCCNC(=O)CCCCc1ccc(C2=C(/C=C/C3=[N+](CCCCS(=O)(=O)O)c4ccc(S(=O)(=O)O)cc4C3(C)C)CCC/C2=C\C=C2\N(CCCCS(=O)(=O)O)c3ccc(S(=O)(=O)[O-])cc3C2(C)C)cc1 [Compound 6c, reference compound]
tumor targeting by near infrared imaging ([1]; 3 nmol intravenous, 1-12 h): does not reach the tumor | accumulation in extracted tumor and organs (imaging) ([1]; mouse, in vivo): very little tumor or organ accumulation | binding to SKRC52 cells (fluorescence shift) [2]: only shows little residual binding

COc1cc2[nH]cc(C(=O)N3C[C@@H](CCl)c4c3cc(OC(=O)OCCSSC[C@H](NC(=O)[C@H](CC(=O)O)NC(=O)[C@H](CCCNC(=N)N)NC(=O)[C@H](CC(=O)O)NC(=O)CCCCn3cc(CCCC(=O)Nc5nnc(S(N)(=O)=O)s5)nn3)C(=O)O)c3ccccc43)c2cc1OCCN(C)C [Compound 7a, AAZ Targeted CBI Carbonate]
Kd [3]: 7.3 ± 0.5 nM | binding affinity for recombinant CAIX in vitro (in words) [3]: retain binding affinity for recombinant CAIX in vitro | half-life ([4]; mouse plasma, MS/MS, errors <1 min, read-out: Half lives in mouse plasma): 0.717 h | half-life ([4]; mouse serum, read-out: t1/2 in mouse serum in vitro): 0.717 h | tolerability at 13.3 nmol/day [5, 9]: poorly tolerated | tolerated dose [5, 9]: up to 4.0 nmol/day | tumor growth effect (SKRC52 xenograft tumors): statistically significant tumor growth retardation | half-life [6]: 15 h | EC50 [7]: 0.7 ± 0.1 nM

COc1cc2[nH]cc(C(=O)N3C[C@@H](CCl)c4c3cc(OC(=O)N(C)CCSSC[C@H](NC(=O)[C@H](CC(=O)O)NC(=O)[C@H](CCCNC(=N)N)NC(=O)[C@H](CC(=O)O)NC(=O)CCCCn3cc(CCCC(=O)Nc5nnc(S(N)(=O)=O)s5)nn3)C(=O)O)c3ccccc43)c2cc1OCCN(C)C [Compound 8a, AAZ Targeted CBI Carbamate]
Kd [3]: 40.3 ± 2.6 nM | binding affinity for recombinant CAIX in vitro (in words) [3]: retain binding affinity for recombinant CAIX in vitro | half-life ([4]; plasma, MS/MS, errors <1 min, read-out: Half lives in mouse plasma): 1.02 h | half-life ([4]; serum, read-out: t1/2 in mouse serum in vitro): 1.02 h | tolerated dose [5, 9]: ≤ 13.3 nmol/day | tumor growth effect (SKRC52 xenograft tumors): did not lead to any retardation in tumor growth | half-life ([6]; buffer): > 24 h

COc1cc2cc(c1Cl)N(C)C(=O)C[C@H](OC(=O)[C@H](C)N(C)C(=O)CCSSC[C@H](NC(=O)[C@H](CC(=O)O)NC(=O)[C@H](CCCNC(=N)N)NC(=O)[C@H](CC(=O)O)NC(=O)CCCCn1cc(CCCC(=O)Nc3nnc(S(N)(=O)=O)s3)nn1)C(=O)O)[C@@]1(C)O[C@H]1[C@H](C)[C@@H]1C[C@@](O)(NC(=O)O1)[C@H](OC)/C=C/C=C(\C)C2 [Compound 9a, Targeted DM1 Conjugate]
Kd [3]: 26.5 ± 2.5 nM | binding affinity for recombinant CAIX in vitro (in words) [3]: retain binding affinity for recombinant CAIX in vitro | half-life ([4]; mouse serum, HPLC, read-out: t1/2 in mouse serum (converted)): 20 h | tolerability of six doses of 60 nmol ([5]; daily injections, SKRC52 tumor bearing nude mice): tolerated with only minimal weight loss | anti-tumor effect (SKRC52 xenograft tumors; [10]): potent anti-tumor effect | time after start of treatment at which tumors started regrowing (SKRC52 xenograft tumors; [10]): 20 days | toxicity (body weight) (SKRC52 xenograft tumors; [10]): no detectable body weight loss | decomposition in PBS (in words) ([6]; HPLC): No decomposition was observed

N1-(2-(2-(2-aminoethoxy)ethoxy)ethyl)-N4-(5-sulfamoyl-1,3,4-thiadiazol-2-yl)succinamide Alexa546 conjugate [Compound 1b]
fluorescence in organs by microscopy [8]: strong fluorescence due to 1b inside the tumor and the intestine | tumor staining / penetration by fluorescence microscopy [8]: staining of the tumor with 1b is initially highest in well-perfused areas

tert-butyl (2-(2-(2-aminoethoxy)ethoxy)ethyl)carbamate Alexa546 conjugate [Compound 6b]
tumor staining / penetration by fluorescence microscopy [8]: cannot be detected inside the tumor
